{"source": "paper PMC12499447", "about": "“API5 Phosphorylation Promotes Antiviral Immunity by Inhibiting Degradation of Cytosolic RNA Sensor RLRs” (Advanced Science, 2025)", "molecules": {"B1": {"name": "GST-API5 (natural protein, human, UniProt Q9BZZ5 1-524, looked up)", "chain": "MPTVEELYRNYGILADATEQVGQHKDAYQVILDGVKGGTKEKRLAAQFIPKFFKHFPELADSAINAQLDLCEDEDVSIRRQAIKELPQFATGENLPRVADILTQLLQTDDSAEFNLVNNALLSIFKMDAKGTLGGLFSQILQGEDIVRERAIKFLSTKLKTLPDEVLTKEVEELILTESKKVLEDVTGEEFVLFMKILSGLKSLQTVSGRQQLVELVAEQADLEQTFNPSDPDCVDRLLQCTRQAVPLFSKNVHSTRFVTYFCEQVLPNLGTLTTPVEGLDIQLEVLKLLAEMSSFCGDMEKLETNLRKLFDKLLEYMPLPPEEAENGENAGNEEPKLQFSYVECLLYSFHQLGRKLPDFLTAKLNAEKLKDFKIRLQYFARGLQVYIRQLRLALQGKTGEALKTEENKIKVVALKITNNINVLIKDLFHIPPSYKSTVTLSWKPVQKVEIGQKRASEDTTSGSPPKKSSAGPKRDARQIYNPPSGKYSSNLGNFNYEQRGAFRGSRGGRGWGTRGNRSRGRLY", "notes": "API5, human, full-length gene amplified from HEK293T cells, in pGEX-4T-1; also called pGEX-4T-1-API5; source: E. coli BL21 (pLysS), purified (glutathione resin)"}}, "key": {"p62": {"target": "p62 (UniProt Q13501)", "assay": "co-IP", "settings": "reference: API5 wild type; sites S464"}, "RIG‐I": {"target": "RIG‐I (UniProt O95786)", "assay": "co-IP", "settings": "reference: API5 wild type; sites S464"}, "MDA5": {"target": "MDA5 (UniProt Q9BYX4)", "assay": "co-IP", "settings": "reference: API5 wild type; sites S464"}, "His-SRPK1": {"target": "T1, His-SRPK1 (human (amplified from HEK293T cells), UniProt Q96SB4 1-655)", "T1 construct": "SRPK1, full-length gene amplified from HEK293T cells, in pET-28a; also called pET-28a-SRPK1; source: E. coli BL21 (pLysS), purified (Ni-NTA)", "assay": "pull-down; purified GST-API5 (20 ng) or GST (20 ng) incubated with His-SRPK1 (50 ng) at 4 °C for 4 h; captured on GST resin; washed five times with NP-40 lysis buffer; immunoblot", "settings": "both partners purified"}}, "data": [{"molecule": "API5 (from UniProt Q9BZZ5) API5 S464A", "values": [{"measurement": "binding against the reference", "setting": "p62", "value": "weaker"}, {"measurement": "binding against the reference", "setting": "RIG‐I", "value": "lost"}, {"measurement": "binding against the reference", "setting": "MDA5", "value": "lost"}]}, {"molecule": "B1", "values": [{"measurement": "binding result", "setting": "His-SRPK1", "value": "binds"}]}]}
